These results are taken from paper PMC2832577 (Science (New York, N.Y.), 2008).

The target in data set [1] is T1, LeuT (Aquifex aeolicus, UniProt O67854). The data set is described as follows: displacement of [3H]leucine binding.
The target of data set [2] is T1, LeuT. The data set can be described thus: direct radioligand binding.
Data set [3] concerns the target T1, LeuT. The data set can be described thus: X-ray crystal structure, anomalous difference Fourier. The following applies: primary substrate site. The data set is classed as binding.
In another data set the test system is CC(C)C[C@H](N)C(=O)O. The data set is described as follows: purified protein. The note with it: transport.
In data set [4] the test system is N[C@@H](Cc1ccc(O)cc1)C(=O)O. The data set can be described thus: purified protein. The following applies: transport.
Another data set has as its system NCC(=O)O. The data set is described as follows: purified protein. The following applies: transport.
Another data set has as its system CSCC[C@H](N)C(=O)O. The data set is described as follows: purified protein. The following applies: transport.

In the case of `NCC(=O)O` [Glycine], the Ki on LeuT [1] came to 322 µM.
Compound `CSCC[C@H](N)C(=O)O` [Methionine] displayed a Ki at LeuT [1] of 0.232 ± 0.021 µM. In addition, on LeuT [2], binding was put at a Kd of 0.069 ± 0.008 µM.
In turn, `N[C@@H](Cc1ccc(O)cc1)C(=O)O` [Tyrosine] yielded a Ki on LeuT [1] of 9.04 ± 0.55 µM.
For the compound `C[Se]CC[C@H](N)C(=O)O` [selenomethionine], at LeuT [3], the “X-ray crystal structure, anomalous difference Fourier” value is on record as “We also measured diffraction data on a LeuT-selenomethionine complex”.
On to LeuT (Aquifex aeolicus VF5), for which, in the data set with CC(C)C[C@H](N)C(=O)O, the Km is 0.146 ± 0.025 µM, the Vmax came to 0.000343 µmol/min/mg, the kcat is 0.000333 ± 5.56e-05 s⁻¹ and the kcat/Km was found to be 2280 M⁻¹ s⁻¹. Also, in data set [4], the Km came out at 2.83 ± 0.15 µM, the Vmax is 0.000209 µmol/min/mg, the kcat was determined as 0.000206 ± 1.39e-05 s⁻¹ and the kcat/Km came out at 83.3 M⁻¹ s⁻¹. Further, in the data set on NCC(=O)O, the Km was 1.91 ± 0.03 µM, the Vmax was determined as 0.000444 µmol/min/mg, the kcat was found to be 0.000439 ± 5.56e-05 s⁻¹ and the kcat/Km was found to be 222 M⁻¹ s⁻¹. In the data set with CSCC[C@H](N)C(=O)O, the Michaelis constant (Km) was determined as 0.289 ± 0.027 µM, the Vmax was 0.000523 µmol/min/mg, the kcat was found to be 0.000517 ± 1.11e-05 s⁻¹ and the kcat/Km came out at 1780 M⁻¹ s⁻¹.
